# T1: human CD81 on CD81-expressing cells (Jurkat E6.1, human PBMC, Ramos) (human, UniProt P60033 1-236)
# T1 construct: endogenous CD81 of the cells; also called wild type human CD81
# T1 sequence: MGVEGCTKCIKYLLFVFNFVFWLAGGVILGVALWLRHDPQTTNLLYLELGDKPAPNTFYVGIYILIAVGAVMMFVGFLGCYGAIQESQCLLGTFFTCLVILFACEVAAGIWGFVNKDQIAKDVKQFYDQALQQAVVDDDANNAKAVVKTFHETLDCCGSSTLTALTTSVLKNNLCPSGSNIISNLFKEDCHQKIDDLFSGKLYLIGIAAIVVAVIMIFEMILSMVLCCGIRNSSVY
# T2: human CD81 mutant G158S (human, UniProt P60033 1-236, limits assumed)
# T2 construct: as m30; not shown: C-terminal V5 and 6xHis tags
# T2 sequence: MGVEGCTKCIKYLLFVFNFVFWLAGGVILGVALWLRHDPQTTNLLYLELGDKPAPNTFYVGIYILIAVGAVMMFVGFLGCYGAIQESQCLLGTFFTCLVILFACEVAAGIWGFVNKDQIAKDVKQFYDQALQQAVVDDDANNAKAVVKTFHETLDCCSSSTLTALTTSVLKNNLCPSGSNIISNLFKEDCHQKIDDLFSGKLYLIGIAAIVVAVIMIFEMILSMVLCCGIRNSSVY
# T3: human CD81 mutant N172A (human, UniProt P60033 1-236, limits assumed)
# T3 construct: as m30; not shown: C-terminal V5 and 6xHis tags
# T3 sequence: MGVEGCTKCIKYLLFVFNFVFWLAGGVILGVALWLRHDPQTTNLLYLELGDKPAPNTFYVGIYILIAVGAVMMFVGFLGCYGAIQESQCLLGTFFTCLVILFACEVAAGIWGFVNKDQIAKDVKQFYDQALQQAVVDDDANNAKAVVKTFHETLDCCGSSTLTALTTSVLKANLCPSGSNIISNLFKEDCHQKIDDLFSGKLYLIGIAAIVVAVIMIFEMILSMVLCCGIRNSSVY
# Tests used:
# [1] = molecular target: T1, human CD81 on CD81-expressing cells …; assay: flow cytometry, human PBMC
# From the text: Based on known information (JOURNAL OF VIROLOGY., 79, 4316-4328, 2005), Jurkat E6.1 cells and human PBMC (Peripheral Blood Mononuclear cells) were used as human CD81-expressing cells to confirm binding of the antibodies of the present invention obtained in Example 1 to the human CD81-expressing cells. Jurkat E6.1 cells were purchased from European Collection of Cell Cultures (ECACC) (Cat No. 88042803). Human PBMC were purchased from KAC Co., Ltd. (KAC). These cells were collected by centrifugation (4,000 rpm, 3 min, 4° C.) and suspended in FACS staining buffer (phosphate buffer, 0.09% sodium azide, 1% bovine serum albumin (BSA: Hyclone Laboratories)). The number of viable cells was counted using trypan blue and 10⁶ cells/100 μl were added in an eppendorf tube.
# To the cells prepared in (1) above was added the anti-human CD81 antibody (002-A07 or 005-001) prepared in Example 1 or a human IgG4 (Acris) as a control (0.1 μg), and the cells were incubated for 20 min at 4° C. […] The binding ratio (%) of the anti-human CD81 antibody to the cells was analyzed by flow cytometry using FACS Calibur (BD Biosciences) and calculated as the percentage of cells having a PE-derived fluorescent intensity greater than that observed when the control IgG4 is used. […]
# [2] = molecular target: T2, human CD81 mutant G158S; assay: ELISA
# Procedure, shortened: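 Altered forms of human CD81 carrying C-terminal V5 and 6×His tags were cloned in pcDNA-DEST40 and expressed transiently in CHO cells for 48 hours, after which membranes were solubilised in 1% n-octylglucoside and captured on Ni-NTA His Sorb plates at 5 μg/100 μL/well for 3 hours at 4° C. Antibody was bound for 1 hour at room temperature and detected with HRP anti-human IgG4 and TMB, reading absorbance at 450 nm. Relative binding affinity is expressed as a percentage of binding to unmodified CD81, adjusted for V5-tag expression.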
# [3] = molecular target: T3, human CD81 mutant N172A; assay: ELISA
binder,measurement,setting,value
"002-A07 IgG4 antibody (antibody, human IgG4 S228P, lambda light chain) heavy: not shown light: QSVLTQPPSASGTPGQRVTISCTGSTSNIGAGYDTHWYQQLPGTAPKLLIYGNSNRPSGVPDRFSGSKSGTSASLAISGLRSEDEADYYCQSYDTNLSVWVFGGGTKLTVLGQPKAAPSVTLFPPSSEELQANKATLVCLISDFYPGAVTVAWKADSSPVKAGVETTTPSKQSNNKYAASSYLSLTPEQWKSHRSYSCQVTHEGSTVEKTVAPTECS",binding ratio to cells (%),[1],99%
same,relative binding affinity,[2],< 20%
"003-D07 (antibody, human IgG4 S228P, lambda, V domains shown, IgG4 S228P) VH: EVQLLESGGGLVQPGGSLRLSCAASGFTFSSNYMSWVRQAPGKGLEWVSYISSSSTYTDYADSVKGRFTISRDNSKNTLYLQMNSLRAEDTAVYYCARYSYDRDNFDYWGQGTLVTVSS VL: QSVLTQPFSASGTPGQRVTISCTGSTSNIGAGYDTHWYQHLPGTAPKLLIYGNSNRPSGVPDRFSGSKSGTSASLAISGLRSEDEADYYCQSYDTNLSVWVFGGGTKLTVLG",relative binding affinity,[3],< 20%
